Values quoted from earlier work in publication PMC2919054.

Target: ILT7 (Homo sapiens) (UniProt P59901)
Test: SPR

UniProt P59901, sequence (P59901 24-499): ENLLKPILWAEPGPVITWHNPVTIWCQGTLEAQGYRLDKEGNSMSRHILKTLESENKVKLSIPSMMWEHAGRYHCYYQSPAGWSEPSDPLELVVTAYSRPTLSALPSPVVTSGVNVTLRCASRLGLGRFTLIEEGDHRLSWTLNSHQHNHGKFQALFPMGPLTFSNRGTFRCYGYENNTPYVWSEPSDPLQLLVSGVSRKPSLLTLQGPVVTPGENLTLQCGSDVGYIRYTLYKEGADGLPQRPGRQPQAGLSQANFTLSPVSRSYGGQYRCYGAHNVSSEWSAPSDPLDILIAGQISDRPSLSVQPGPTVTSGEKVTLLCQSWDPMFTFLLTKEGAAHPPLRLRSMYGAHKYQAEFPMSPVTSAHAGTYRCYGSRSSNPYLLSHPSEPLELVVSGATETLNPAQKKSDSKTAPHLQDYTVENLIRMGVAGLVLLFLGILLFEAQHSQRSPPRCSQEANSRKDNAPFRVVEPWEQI

Kd: 1000 nM
Substance: BST2 (from UniProt Q10589)
